Tested on: MS2 coat protein
Assay: apparent KD of MS2 coat protein; higher = weaker reporter binding
Conditions: Eterna round: R107
Procedure, shortened: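 SNAP-549-labelled MS2 coat protein was titrated onto designed RNA switches that had been transcribed on-chip from Illumina sequencing clusters. Amounts doubled from 0.7 or 1.5 nM to 3 µM in 100 mM Tris-HCl pH 7.5, 80 mM KCl, 4 mM MgCl2, with constant ligand or without. Apparent KD is the median per design of normalised cluster binding-curve fits.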

[1] = input ligand: theophylline 20 uM
[2] = input ligand: theophylline 2 mM
[3] = input ligand: tryptophan 2.4 mM

Sequence	apparent KD of MS2 coat protein (input ligand: arginine 13.2 mM) [nM]	apparent KD of MS2 coat protein [1] [nM]	apparent KD of MS2 coat protein [2] [nM]	apparent KD of MS2 coat protein (input ligand: none) [nM]	apparent KD of MS2 coat protein [3] [nM]
AGAUUCGACACGGCCGCCACUUGUGGUGGAUUAUCCAGUGUCGAACAUGAGGAUCACCCAUGUACAAGGACCGGGUGUUGAGUCU [XTryp B #19]	53.3	79.3	96.3		
UGAUUGAACGGAAGGAGCGUGUAAGAACAAGAACAUGAGGAUCACCCAUGUAUUAAUUUAACACAGGUAGGUCGCCGAGAGAUUG [11.D]	16	15.2	14	14.6	12
ACAUGAGGAUCACCCAUGUGGCGUCUUGAUACCAGACGAGAAGUAGUCCCUUGGCAGCAAAUACAUGAGGAUCACCCAUGUAGGA [cccmullin]	16.6	25.5			24.3
AACCGAGGCUAUCCUCUAAGAAAAUGUGAUACCAGAAUAAUUUUAUUCCCUUGGCAGCAUGACAUGAGGAUCACCCAUGUGUCUU [SSTheo A #6]	73.6	131			138
UGUAUGGACUGAAGGAGCGCCUCAAAAUAACAUGAGGAUCACCCAUGUGGCGAAAGCCUUGGGCAGGUAGGUCGCAGUCCAUACU [ArgBX 1 #StaticStem]	62	76.2	72.1	49.9	52.9
ACGUCUCGAAAACUCGUAGUAACAAUAGAUACCAGUAGCGAGAGUUACCCUUGGCAGCUACAUGAGGAUCACCCAUGUACGAGGA [XTheo A #27]	19.1	26			18.1
UAUCGUCAGACGGCCGCCACUAGUACAUGAGGAUCACCCAUGUAGGUCCUAGAUUCCUCAUGAUCUAGGACCGGGUCUGACGAAU [(Trp1)-(Ms2)-(T)'-(M)'-(Trp2)_Design16]	21.4	61.5	52.9		
AGGACGGCCGGAAGGAGCGGUACAUGAGGAUCACCCAUGUACCUCUGGGCAUCCGUAGUGUGCCAGGUAGGUCGCCGGUUGCGGG [Veatgema]	11.1	14.5	12.1	9.88	10.8
AUAACAUGAGGAUCACCCAUGUAAGCAGAUACCAGCUAGGAAACUAGCCCUUGGCAGCUGCAUUCCUCAUGUAGGUAUCUGCUAA [(M1)-(M2)-(T1)-(T2)-(M)'-(T)'_Design4]	18.4	22.1			16.1
ACAUGAGGAUCACCCAUGUGUCCUCGAAAACGAGGACCGGUACGGCCGCCACUCGAAAUAAGCGACAAGCGAAAAGCUUGUCGCA [Mat - Exclusion - Trytophan A - D22]	57.6	194	135	113	406
AAAGAUCGGAAACGAUCGGCGGCUUGGGCGCGAGGACCGGUACGGCCGCCACUCGGGAAACAUGAGGAUCACCCAUGUUGCUAGC [ETA NP+V+V2 #15]	12.3	18.4	16.8		
CCGACGAUGACCAAAGGUCAGGAGUGCGCACGAGGACCGGUACGGCCGCCACUCGAGGAGUGGGACAUGAGGAUCACCCAUGUAA [X-TryptA-ms2@65-1]	23.9	29	20.6	22.4	21.8
AACAUGUGGAUCACCCAUGUAUGUUCUGAAGGAGCGCCACAUGAGGCAGGUAGGUCGCAGGUACAUGAGGAUCACCCAUGUGUCA [Exclusion Arginine A 4]	54.5	111	193	192	158
GAGACAUCGGGAAGGAGCGCAUCCAAACCACACAUGAGGAUCACCCAUGUAUAAAUAUGCAUGCAGGUAGGUCGCCCGGUAUCCC [Tiisqure]	26.5	40.2	35	27.8	28.9
AUUGUGAAGUCGGCCGCCACUGCAUAGUUUAACCUCUUUUAACAUGAGGAUCACCCAUGUAAUGACAGGACCGGGACAAUAGUAA [JR_SSTryptoB_Sub022]	54.3	92.3	79.7		
GUAAUUAUAAGAAGGAGCGUCGAAAAUGGGUAAACAUGAGGAUCACCCAUGUAAAGGGAACGACAGGUAGGUCGCUUAUGAUUAC [AstromonsSSArgB#22]	76.5	164	274	185	202
UUGGGUUUGUGAAGGAGCGGGUAUGUUUUCUAGUGGAUCCUAACAUGAGGAUCACCCAUGUCCCAGGUAGGUCGCGCGGGUUUGG [12.U]	64.6	227	99.8	117	81.8
UCGGGUUUGCGAAGGAGCGGGUAUGUUUUCUAGUGGAUCCUAACAUGAGGAUCACCCAUGUCCCAGGUAGGUCGCGCGGGUUUGG [12.W]	183	291	168	102	100
AAUAAACAUGAGGAUCACCCAUGUAGGGUGCGAGGACCGGUACGGCCGCCACUCGGGUGAAAACAUGAGGAUCACCCAUGUAAAA [Mat - Exclusion - Trytophan A - D23]	61.1	185	220		

Sequence	apparent KD of MS2 coat protein (input ligand: arginine 13.2 mM) [nM]	apparent KD of MS2 coat protein [1] [nM]	apparent KD of MS2 coat protein [2] [nM]	apparent KD of MS2 coat protein (input ligand: none) [nM]	apparent KD of MS2 coat protein [3] [nM]
UGCCGAGACGUGGAUUACCCGUGUACCGAAGGAGCGCCCGAAAGGGCAGGUAGGUCGCGGAGGACAUGAGGAUCACCCAUGUUGA	32.8	43.7	96.8	73.7	54.8
GUGUGGCGCUCGGCCGCCACUCAGACAUGAGGAUCACCCAUGUAGAACAUGAGGAUCACCCAUGUGAGGACCGGGAGACACACGA [Exclusion Tryptophan B GF11]	164	288	404	288	308
GGACCAGGGAGCGAUACCAGCUUGAGUGUGCUGGCCAGGCACAUGAGGAUCACCCAUGUAAGCCCUUGGCAGCGCUCCCUGGUCC [#1 Exclusion - Theophylline B Attempt #27 (HarryS)]	6.87	15.3	13.9	9.65	11.1
UAUAUAUAUAUUGAUACCAGCAGAGAAAACGUUUAUCCUAACAUGAGGAUCACCCAUGUAUGCCCUUGGCAGCGGUAUAUAUAUA [8.D]	19.7	29.2			22.6
GGGUGGUAGGCGGCCGCCACUGAUUUUUAUUUAUAGAUGACAUGAGGAUCACCCAUGUUUAUAUGCAGGACCGGGCCUGUUGUGG [aaaQ]	12	22.5	17.6		
AUUUUUCUAUCAGAUACCAGACAACUCCAAACAUGAGGAUCACCCAUGUAUUGGGUGUUCGUCCCUUGGCAGCUGUUAAUGUUAA [JR_SSTheophyB_Sub003]	24.6	18.1			16.9
CGCGAGACGGCGGCCGCCACUUGUUGUUGGAAACUCGAGUUACAUGAGGAUCACCCAUGUCCUUAAAGGACCGGGCCGUAAGUAA [theeternabot_sameState_MS2_Trp_B_13]	99.3	198	219		
GGGCGUGUGGUGCGGCGUGUUCCGCUCCGUCGAGGACCGGUACGGCCGCCACUCGACAUGAGGAUCACCCAUGUGCGAGCGCGCG [#1 Exclusion - Tryptophan A Attempt #8 (HarryS)]	13.2	13.2	11.7	11.5	19.2
UUAGUAACGACGGCCGCCACUGAAUUUGAACAUGAGGAUCACCCAUGUAGAGAUCCUAGAAUAAACAGGACCGGGUCUGAUAAUG [Exclusion Tryptophane B GF3]	80.8	139	120		
AACAUGAGGAUCACCCAUGUUUUAUGGGAUACCAGAGACGAAAGUCUCCCUUGGCAGCCCAAGCUGCUCCAUACGAAAGUAUGGU [Theophylline A 17]	16	18.2			16.6
UGUCAGCGAAAGUUGACAUGUCUUACCGGUCGAGGACCGGUACGGCCGCCACUCGAUCACUCGCACAUGAGGAUCACCCAUGUCG [SS Tryp A #20]	11.7	14.5	13.9		
AGCGACAUGCGUGAUACCAGCUACAUGAGGAUCACCCAUGUCAGUAGGAAACUGCUGUGUAGCCCUUGGCAGCACAGUGCAUGUC [Exclusion - Theophylline B (Freestyle 27)]	36	47.5			36.4
AAUCUGAUUGCGGCCGCCACUAAUUUUCCAUGAGUAUUGCAAUUACAUGAGGAUCACCCAUGUCAUAGGACCGGGCAUGACAUCU [theeternabot_sameState_MS2_Trp_B_45]	104	202	309		
CAGUCAGUCAGUCAAUGAGUGAGGCAUGAAGGAGCGUGGGAAACCACAGGUAGGUCGCAUGCGAAACAUGAGGAUCACCCAUGUU [SSArg A #3]	29.4	42.5	51.9	47.9	26.3
ACAUGAGGAUCACCCAUGUAUGACUAUCCUCGAGGACCGGUACGGCCGCCACUCGAAGGAGUGGCUCGCGAGUGCGCACUUGCAA [5' end]	9.87	16.5	13.6	12.5	11.5
ACGUCCAGGUUAAUCGUGGACAUGGUCGAUACCAGUAUUUUAAUCUACCCUUGGCAGCGACAUGAGGAUCACCCAUGUGCGAUGA [XTheo A #15]	11.7	14.7			13
ACCGCGGUAUCGGCCGCCACUUGUGGGUUAAAUCUGGUACAUGAGGAUCACCCAUGUGUCUCCUCGAGGACCGGGAUAGCGUGAC [Geaner]	97.7	168	211		
AUACACCUCGUCCAGGCAAUCUUUAGUGAUACCAGCUAACUCCGUGGCCCUUGGCAGCACAUGAGGAUCACCCAUGUGCGACAUC [Bioninen]	10.2	13.4			11.6
AGCAACAAGUCGGCCGCCACUCAUUUAACAUGAGGAUCACCCAUGUGAAUAACAUGAUUGUAAUAGAGGACCGGGACAGUUGCAU [JR_SSTryptoB_Sub014]	62.1	85.5	103		
